From paper PMC3695782, “Hypersusceptibility mechanism of Tenofovir-resistant HIV to EFdA”

Target: HIV-1 reverse transcriptase WT (Human immunodeficiency virus type 1, UniProt P04585;P04585 588-1147;588-1027)
Experiment: site-specific Fe2+ footprinting; 6 mM MgCl2, 1 uM EFdA-TP, 1 mM Fe2+, varied dTTP; RT 600 nM, T/P 100 nM; mainly pre-translocation; Footprinting: 120 mM sodium cacodylate pH 7, 20 mM NaCl, 6 mM MgCl2, 1 uM EFdA-TP, 7 min pre-incubation with dTTP, then 1 mM ammonium iron sulfate 5 min; temperature not given; EMSA conditions not in the material
Settings: protein: recombinant; copies: 1;1; label: 5'-Cy3 on template Td43; template 5' overhang 12 nt after EFdA-MP addition; other end blunt

B1: Td43/Pd30-EFdA-MP (dsDNA)
DNA 1: CCATAGATAGCATTGGTGCTCGAACAGTGACAATCAGTGTAGA
DNA 2: TCTACACTGATTGTCACTGTTCGAGCACCAA
modifications: EFdA-MP (4'-ethynyl-2-fluoro-2'-deoxyadenosine monophosphate) as 3'-terminal nucleotide of primer, written A; added in situ by RT to Pd30 (S9)
Q: Does B1 bind?
A: binds
